Broadly, the stoichiometry N is a count of units in the complex or per binding partner.

The target in data set [1] is T1, CjFur K28E K28E (Campylobacter jejuni NCTC11168?) (UniProt P0C631).
T1 sequence: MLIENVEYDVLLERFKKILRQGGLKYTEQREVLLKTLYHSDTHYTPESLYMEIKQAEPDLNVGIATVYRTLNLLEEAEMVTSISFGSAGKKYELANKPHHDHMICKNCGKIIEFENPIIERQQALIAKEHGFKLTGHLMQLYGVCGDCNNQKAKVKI
In words: EMSA. Particulars: 20 mM Bis-Tris borate pH 7.4, 50 mM KCl, 3 mM MgCl2, 5% glycerol, 0.1% Triton X-100, 0.1 ug poly dI-dC, 2 nM DNA, 45 min on ice; holo: +50 uM MnCl2 (100 uM in …). For orientation: Mobility shift assays separate free from complexed probe on a gel.

Data set [2] concerns the target T2, CjFur R69E R69E (Campylobacter jejuni NCTC11168?) (UniProt P0C631).
T2 sequence: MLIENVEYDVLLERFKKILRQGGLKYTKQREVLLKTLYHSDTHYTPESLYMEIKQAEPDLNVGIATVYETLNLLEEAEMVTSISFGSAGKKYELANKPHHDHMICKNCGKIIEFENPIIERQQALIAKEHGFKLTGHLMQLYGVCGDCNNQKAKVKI
Nature of the data set: EMSA. Particulars: 20 mM Bis-Tris borate pH 7.4, 50 mM KCl, 3 mM MgCl2, 5% glycerol, 0.1% Triton X-100, 0.1 ug poly dI-dC, 2 nM DNA, 45 min on ice; holo: +50 uM MnCl2 (100 uM in …).

For data set [3], the target named is T3, CjFur R30E R30E (Campylobacter jejuni NCTC11168?) (UniProt P0C631).
T3 sequence: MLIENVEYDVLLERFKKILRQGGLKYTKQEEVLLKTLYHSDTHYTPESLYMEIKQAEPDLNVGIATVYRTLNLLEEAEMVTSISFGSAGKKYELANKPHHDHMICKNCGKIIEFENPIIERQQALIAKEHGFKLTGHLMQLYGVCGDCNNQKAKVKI
Nature of the data set: EMSA. The conditions noted are these: 20 mM Bis-Tris borate pH 7.4, 50 mM KCl, 3 mM MgCl2, 5% glycerol, 0.1% Triton X-100, 0.1 ug poly dI-dC, 2 nM DNA, 45 min on ice; holo: +50 uM MnCl2 (100 uM in …).

The target in data set [4] is T4, CjFur K17E K17E (Campylobacter jejuni NCTC11168?) (UniProt P0C631).
T4 sequence: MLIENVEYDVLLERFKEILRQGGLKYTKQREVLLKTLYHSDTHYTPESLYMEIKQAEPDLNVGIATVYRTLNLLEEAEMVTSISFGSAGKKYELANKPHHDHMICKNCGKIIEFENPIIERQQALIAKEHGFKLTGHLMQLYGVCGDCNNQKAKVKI
Nature of the data set: EMSA. Particulars: 20 mM Bis-Tris borate pH 7.4, 50 mM KCl, 3 mM MgCl2, 5% glycerol, 0.1% Triton X-100, 0.1 ug poly dI-dC, 2 nM DNA, 45 min on ice; holo: +50 uM MnCl2 (100 uM in …).

Data set [5] has as its target T5, CjFurΔS3 H99A;H137A (Campylobacter jejuni NCTC11168?) (UniProt P0C631).
T5 sequence: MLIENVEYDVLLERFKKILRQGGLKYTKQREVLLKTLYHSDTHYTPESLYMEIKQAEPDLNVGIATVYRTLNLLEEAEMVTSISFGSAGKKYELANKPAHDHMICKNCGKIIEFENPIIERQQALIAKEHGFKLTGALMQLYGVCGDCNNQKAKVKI
Nature of the data set: EMSA. Particulars: 20 mM Bis-Tris borate pH 7.4, 50 mM KCl, 3 mM MgCl2, 5% glycerol, 0.1% Triton X-100, 0.1 ug poly dI-dC, 2 nM DNA, 45 min on ice; holo: +50 uM MnCl2 (100 uM in …).

Data set [6] deals with T6, CjFur Y68A Y68A (Campylobacter jejuni NCTC11168?) (UniProt P0C631).
T6 sequence: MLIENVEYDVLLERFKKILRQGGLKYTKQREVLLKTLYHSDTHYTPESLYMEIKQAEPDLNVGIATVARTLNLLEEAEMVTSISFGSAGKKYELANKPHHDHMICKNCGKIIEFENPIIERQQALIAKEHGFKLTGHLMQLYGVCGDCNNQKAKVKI
Nature of the data set: EMSA. Particulars: 20 mM Bis-Tris borate pH 7.4, 50 mM KCl, 3 mM MgCl2, 5% glycerol, 0.1% Triton X-100, 0.1 ug poly dI-dC, 2 nM DNA, 45 min on ice; holo: +50 uM MnCl2 (100 uM in …).

For data set [7], the target named is T7, CjFur WT (Campylobacter jejuni NCTC11168?) (UniProt P0C631).
T7 sequence: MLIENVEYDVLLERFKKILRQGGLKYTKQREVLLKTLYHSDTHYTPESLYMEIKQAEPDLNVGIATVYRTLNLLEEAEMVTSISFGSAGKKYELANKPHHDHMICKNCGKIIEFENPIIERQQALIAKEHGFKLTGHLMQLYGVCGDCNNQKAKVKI
In words: EMSA. Particulars: 20 mM Bis-Tris borate pH 7.4, 50 mM KCl, 3 mM MgCl2, 5% glycerol, 0.1% Triton X-100, 0.1 ug poly dI-dC, 2 nM DNA, 45 min on ice; holo: +50 uM MnCl2 (100 uM in …).

Data set [8] has as its target T8, CjFurΔS2 H43A;H102A (Campylobacter jejuni NCTC11168?) (UniProt P0C631).
T8 sequence: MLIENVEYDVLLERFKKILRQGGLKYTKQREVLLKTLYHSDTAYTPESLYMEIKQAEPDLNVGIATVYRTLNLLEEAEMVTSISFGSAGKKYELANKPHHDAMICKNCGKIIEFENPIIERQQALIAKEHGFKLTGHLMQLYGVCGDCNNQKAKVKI
Nature of the data set: EMSA. The conditions noted are these: 20 mM Bis-Tris borate pH 7.4, 50 mM KCl, 3 mM MgCl2, 5% glycerol, 0.1% Triton X-100, 0.1 ug poly dI-dC, 2 nM DNA, 45 min on ice; holo: +50 uM MnCl2 (100 uM in …).

Data set [9] addresses T9, CjFur K25E K25E (Campylobacter jejuni NCTC11168?) (UniProt P0C631).
T9 sequence: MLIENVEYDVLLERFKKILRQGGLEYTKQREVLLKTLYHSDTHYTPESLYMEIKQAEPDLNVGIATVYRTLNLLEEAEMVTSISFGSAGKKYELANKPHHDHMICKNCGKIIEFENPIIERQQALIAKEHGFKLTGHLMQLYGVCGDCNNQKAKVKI
In words: EMSA. The conditions noted are these: 20 mM Bis-Tris borate pH 7.4, 50 mM KCl, 3 mM MgCl2, 5% glycerol, 0.1% Triton X-100, 0.1 ug poly dI-dC, 2 nM DNA, 45 min on ice; holo: +50 uM MnCl2 (100 uM in …).

The target of data set [10] is T10, CjFur R20E R20E (Campylobacter jejuni NCTC11168?) (UniProt P0C631).
T10 sequence: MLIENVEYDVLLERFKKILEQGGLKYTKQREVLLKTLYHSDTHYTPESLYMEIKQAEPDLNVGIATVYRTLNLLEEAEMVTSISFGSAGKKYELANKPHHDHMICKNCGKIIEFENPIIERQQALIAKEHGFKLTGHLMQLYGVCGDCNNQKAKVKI
Nature of the data set: EMSA. The conditions noted are these: 20 mM Bis-Tris borate pH 7.4, 50 mM KCl, 3 mM MgCl2, 5% glycerol, 0.1% Triton X-100, 0.1 ug poly dI-dC, 2 nM DNA, 45 min on ice; holo: +50 uM MnCl2 (100 uM in …).

Data set [11] deals with CjFur Y68A (UniProt P0C631 1-157, Y68A). In words: EMSA; holo, 50 uM MnCl2; 0-100 nM protein; 20 mM Bis-Tris borate pH 7.4, 50 mM KCl, 3 mM MgCl2, 5% glycerol, 0.1% Triton X-100, 0.1 ug poly dI-dC, 2 nM DNA, 45 min on ice; holo: +50 uM MnCl2 (100 uM in gel); gel at 4 C. Particulars: protein: recombinant; tags: N-terminal Strep tag, TEV-cleaved; chain copies: 2; label: 5' Cy5 on both strands; blunt.

Data set [12] concerns the target CjFur R30E (UniProt P0C631 1-157, R30E). The data set is described as above. The conditions noted are these: protein: recombinant; tags: N-terminal Strep tag, TEV-cleaved; chain copies: 2; label: 5' Cy5 on both strands; blunt.
The target of data set [13] is CjFur K25E (UniProt P0C631 1-157, K25E). The data set is described as above. Particulars: protein: recombinant; tags: N-terminal Strep tag, TEV-cleaved; chain copies: 2; label: 5' Cy5 on both strands; blunt.
In data set [14] the target is CjFur R69E (UniProt P0C631 1-157, R69E). The description is as above. Particulars: protein: recombinant; tags: N-terminal Strep tag, TEV-cleaved; chain copies: 2; label: 5' Cy5 on both strands; blunt.
For data set [15], the target named is T11, CjFur WT (UniProt P0C631 1-157).
T11 sequence: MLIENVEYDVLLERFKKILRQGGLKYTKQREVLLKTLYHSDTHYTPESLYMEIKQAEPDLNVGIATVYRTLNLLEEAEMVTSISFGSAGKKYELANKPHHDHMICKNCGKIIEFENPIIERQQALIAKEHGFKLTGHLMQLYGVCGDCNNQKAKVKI
In words: EMSA; holo, 50 uM MnCl2; 0-100 nM protein; two bound species; 20 mM Bis-Tris borate pH 7.4, 50 mM KCl, 3 mM MgCl2, 5% glycerol, 0.1% Triton X-100, 0.1 ug poly dI-dC, 2 nM DNA, 45 min on ice; holo: +50 uM MnCl2 (100 uM in gel); gel at 4 C. The conditions noted are these: protein: recombinant; tags: N-terminal Strep tag, TEV-cleaved; chain copies: 2; label: 5' Cy5 on both strands; blunt.

Data set [16] concerns the molecule itself. In words: crystal structure; CjFur (7.5 ug/uL) crystallised in 0.1 M Bis-Tris pH 5.5, 0.25 M MgFormate, 25% PEG3350; molecular replacement; 1.8 A; form with zinc in S1 only (CjFurZn).

In the case of “GGGAAAAGAGCCAAATTTAGGTGTTATCATCAATGCTGCTAATGAAGTTGGTGTTTATAATTTTTTAGAAAATAAAAGTGGATTTTTAGACATTGCTAAATGCATTTTTAAAGCCCTTGATCATTTTGGAGTACCTAAAATTTCAAGCATAGAAGAAGTTTTTGAGTATGATTTTAAAACAAGAGAGTATTTAAGGAGTTAAA (double strand) [cj1345c promoter region]”, the binding result is listed as “no binding” in data set [1]; “no binding” in [2]; “binds more weakly” in [3]; “binds more weakly” in [4]; “binds more weakly” in data set [5]; “binds more weakly” in data set [6]. The binding result in data set [7] is “binds”; in data set [8], “binds more weakly”; in [9] it was “no binding”; in data set [10] it was “no binding”.

B1: katA promoter 60 bp (dsDNA)
DNA 1: ACTGAATAATTGCATTTTATTGATAATAAATTTCAAAATAAATTTAGTTTTTTTATATTA
DNA 2: TAATATAAAAAAACTAAATTTATTTTGAAATTTATTATCAATAAAATGCAATTATTCAGT
As to B1, the binding result in data set [11] was “no binding”; in data set [12], “no binding”; in [13], “no binding”; in data set [14], “no binding”; in data set [15] it was “binds”.

B2: Campylobacter jejuni Fur (ferric uptake regulator), wild type (natural protein)
chain: MLIENVEYDVLLERFKKILRQGGLKYTKQREVLLKTLYHSDTHYTPESLYMEIKQAEPDLNVGIATVYRTLNLLEEAEMVTSISFGSAGKKYELANKPHHDHMICKNCGKIIEFENPIIERQQALIAKEHGFKLTGHLMQLYGVCGDCNNQKAKVKI
notes: Ferric uptake regulator Fur of Campylobacter jejuni; wild type; in the crystal one zinc per protomer in the S1 site (C105, C108, C145, C148), S2 and S3 sites empty; Crystallised form is called CjFurZn (zinc only in S1); the earlier structure 4ETS of the same protein is called CjFurZn2 (zinc in S1 and S3); also called CjFur; CjFurZn; source: E. coli Rosetta, purified (Strep-TACTIN beads, TEV …)
B2: in data set [16], the “stoichiometry N” value was 2.

The record behind these values is paper PMC5940780, “Functional insights into the interplay between DNA interaction and metal coordination in ferric uptake regulators” (Scientific Reports, 2018).
